Experiments:
[1] = biological target: T1, SARS-CoV-2 RBD-SD1 with murine IgG2a Fc part, produced in High Five cells (SARS-CoV-2, UniProt P0DTC2); assay: ELISA; details: both partners purified
T1 construct: source: High Five insect cells, transient transfection, purified (Protein A)

[2] = biological target: T1, SARS-CoV-2 RBD-SD1 with murine IgG2a Fc …; assay: flow cytometry on cells; details: both partners purified

Row | Binder | EC50 [1] | IC50 [2]
1 | STE73-2B2 scFv-Fc (scFv, V domains shown, also called scFv-hFc; source: Expi293F, transient transfection, purified (Protein A)) VH: QVQLVQSGAEVKKPGASVKVSCKASGYTFTGYYMHWVRQAPGQGLEWMGWINPNSGGTNYAQKFQGRVTITRDTSASTAYMELSSLRSEDTAVYYCARVSGWYFGAFDIWGQGTMVTVSS VL: LPVLTQPHSLSESPGKTVNISCTGSSGSIASNYVQWYQQRPGSAPTTVIYEDSHRPSGVPDRFSGSIDSSSNSASLSISGLKTEDEADYYCQSYDSSNNQWVFGGGTKLTVL | 0.2 nM | 1.7 nM
2 | STE72-2G4 scFv-Fc (scFv, V domains shown, also called scFv-hFc; source: Expi293F, transient transfection, purified (Protein A)) VH: QVQLVQSGAEVKKPGASVKVSCKASGYTFTSYGISWVRQAPGQGLEWMGWISAYNGNTNYAQKLQGRVTMTTDTSTSTAYMELRSLRSDDTAVYYCARFFYDSSGYSTDYWGQGTLVTVSS VL: ETTLTQSPAFMSVTPGDRAILSCRASQSVDSHLAWYHQKPGQPPRLLIYGASTRATGIPARFSGSRSGTEFTLTISGLQSEDLGVYYCQQYASWPPGYNFGQGTKLEIK | 0.2 nM | 3.7 nM
3 | STE73-6C8 scFv-Fc (scFv, V domains shown, also called scFv-hFc; source: Expi293F, transient transfection, purified (Protein A)) VH: QVQLQQSGAEVKKPGSSVKVSCKASGGTFSSYAISWVRQAPGQGLEWMGRIIPILGIANYAQKFQGRVTITADKSTSTAYMELSSLRSEDTAVYYCARSIAALNWFDPWGQGTLVTVSS VL: NFMLTQPHSVSESPGKTVTIPCTGSRGSIANNYVQWYRQRPGRAPTTVIFEDNQRPSGVPDRFSGSIDRSSNSASLTISGLETEDEADYYCQSYDGSNVIFGGGTKLTVL | 1.1 nM | 5.4 nM
4 | STE73-6C8 IgG (antibody, V domains shown, source: Expi293F, transfected, purified (Protein A); copies: 2 + 2) VH: QVQLQQSGAEVKKPGSSVKVSCKASGGTFSSYAISWVRQAPGQGLEWMGRIIPILGIANYAQKFQGRVTITADKSTSTAYMELSSLRSEDTAVYYCARSIAALNWFDPWGQGTLVTVSS VL: NFMLTQPHSVSESPGKTVTIPCTGSRGSIANNYVQWYRQRPGRAPTTVIFEDNQRPSGVPDRFSGSIDRSSNSASLTISGLETEDEADYYCQSYDGSNVIFGGGTKLTVL | 2.9 nM | –
5 | STE70-1E12 scFv-Fc (scFv, V domains shown, also called scFv-hFc; source: Expi293F, transient transfection, purified (Protein A)) VH: QMQLVQSGAEVKKPGASVKVSCKASGYTFTGYYMHWVRQAPGQGLEWMGRINPNSGGTNYAQKFQGRVTMTRDTSTSTAYMELSRLRSDDTAVYYCVRDGYNFNNWFDPWGQGTLVTVSS VL: NFMLTQPHSVSGSPGETITISCTGSGGSIASNYVQWYRQRPGSAPTIVIYEDTQRPSGVPDRFSGSIDSSSNSASLTISGLKTEDEADYYCQSSESTNHVMFGGGSKLTVL | 0.3 nM | 3.2 nM
6 | STE70-1E12 IgG (antibody, V domains shown, source: Expi293F, transfected, purified (Protein A); copies: 2 + 2) VH: QMQLVQSGAEVKKPGASVKVSCKASGYTFTGYYMHWVRQAPGQGLEWMGRINPNSGGTNYAQKFQGRVTMTRDTSTSTAYMELSRLRSDDTAVYYCVRDGYNFNNWFDPWGQGTLVTVSS VL: NFMLTQPHSVSGSPGETITISCTGSGGSIASNYVQWYRQRPGSAPTIVIYEDTQRPSGVPDRFSGSIDSSSNSASLTISGLKTEDEADYYCQSSESTNHVMFGGGSKLTVL | 0.3 nM | –
7 | STE72-1G5 scFv-Fc (scFv, V domains shown, also called scFv-hFc; source: Expi293F, transient transfection, purified (Protein A)) VH: QVQLVQSGAEVKKPGASVKVSCKASGGTFSSYAISWVRQAPGQGLEWMGGIIPIFGTANYAQKFQGRVTITADESTSTAYMELSSLRSEDTAVYYCAVGGVQLWLTYWGQGTLVTVSS VL: ETTLTQSPGALSLSPGERATLSCRVSQSLSSNSLAWYQQKPGQAPRLLIYDTSIRATGIPDRFSGSGSGTDFTLTISRLEPEDFAVYYCHKYGSWPRTFGQGTKVEV | 2.8 nM | –
8 | STE72-1B6 scFv-Fc (scFv, V domains shown, also called scFv-hFc; source: Expi293F, transient transfection, purified (Protein A)) VH: QVKLVQSGGGLVQPGGSLRLSCAASGFTFSSYAMSWVRQAPGKGLEWVSGISGSGGSTYYADSVKGRFTISRDNSKNTLYLQVNSLRAEDTAVYYCAKAPYGDFRGLWYFDYWGQGTLVTVSS VL: DIVMTQSPFSVSASVGDRVTISCRASQDIRSWLAWYQQKPGKAPQLLIYDASSLQSGVPSRFSGSGSGTDFTLTISSLQPEDFATYYCQQADSVPLTFGGGTKVEIQ | 0.5 nM | 4.8 nM
9 | STE72-1B6 IgG (antibody, V domains shown, source: Expi293F, transfected, purified (Protein A); copies: 2 + 2) VH: QVKLVQSGGGLVQPGGSLRLSCAASGFTFSSYAMSWVRQAPGKGLEWVSGISGSGGSTYYADSVKGRFTISRDNSKNTLYLQVNSLRAEDTAVYYCAKAPYGDFRGLWYFDYWGQGTLVTVSS VL: DIVMTQSPFSVSASVGDRVTISCRASQDIRSWLAWYQQKPGKAPQLLIYDASSLQSGVPSRFSGSGSGTDFTLTISSLQPEDFATYYCQQADSVPLTFGGGTKVEIQ | 1.1 nM | –
10 | STE73-6C1 scFv-Fc (scFv, V domains shown, also called scFv-hFc; source: Expi293F, transient transfection, purified (Protein A)) VH: QVQLVQSGGGVVQPGRSLRLSCAASGFTFSSYAMHWVRQAPGKGLEWVAVISYDGSNKYYADSVKGRFTISRDNSKNTLYLQMNSLRAEDTAVYYCARSYVGGMDVWGQGTTVTVSS VL: QLVLTQSPSVSGAPGQSVTISCTGTDSNIGAGYNVHWYQQLPGAAPKLIISYTDNRPSGVPDRFSGSKSGTSASLAITGLQAEDEADYYCQSSDRTLVGSLFGTGTKVTVL | 0.6 nM | 4.1 nM
11 | STE73-9G3 IgG (antibody, V domains shown, source: Expi293F, transfected, purified (Protein A); copies: 2 + 2) VH: QVQLQESGGGLVQPGGSLRLSCAASGFTFSSYAMSWVRQAPGKGLEWVSAISGSGGSTYYADSVKGRFTISRDNSKNTLYLQMNSLRAEDTAVYYCARDLVLGSGSSNDWGRGTLVTVSS VL: QPVLTQPPSVSGAPGQSVTISCTGTDSNIGAGYNVHWYQQLPGAAPKLIISYTDNRPSGVPDRFSGSKSGTSASLAITGLQAEDEADYYCQSSDRTLVGSLFGTGTKVTVL | 0.4 nM | –
12 | STE73-9G3 scFv-Fc (scFv, V domains shown, also called scFv-hFc; source: Expi293F, transient transfection, purified (Protein A)) VH: QVQLQESGGGLVQPGGSLRLSCAASGFTFSSYAMSWVRQAPGKGLEWVSAISGSGGSTYYADSVKGRFTISRDNSKNTLYLQMNSLRAEDTAVYYCARDLVLGSGSSNDWGRGTLVTVSS VL: QPVLTQPPSVSGAPGQSVTISCTGTDSNIGAGYNVHWYQQLPGAAPKLIISYTDNRPSGVPDRFSGSKSGTSASLAITGLQAEDEADYYCQSSDRTLVGSLFGTGTKVTVL | 0.4 nM | 3.4 nM
13 | STE73-6C1 IgG (antibody, V domains shown, source: Expi293F, transfected, purified (Protein A); copies: 2 + 2) VH: QVQLVQSGGGVVQPGRSLRLSCAASGFTFSSYAMHWVRQAPGKGLEWVAVISYDGSNKYYADSVKGRFTISRDNSKNTLYLQMNSLRAEDTAVYYCARSYVGGMDVWGQGTTVTVSS VL: QLVLTQSPSVSGAPGQSVTISCTGTDSNIGAGYNVHWYQQLPGAAPKLIISYTDNRPSGVPDRFSGSKSGTSASLAITGLQAEDEADYYCQSSDRTLVGSLFGTGTKVTVL | 14.1 nM | –
14 | STE72-4E12 scFv-Fc (scFv, V domains shown, also called scFv-hFc; source: Expi293F, transient transfection, purified (Protein A)) VH: QVQLVQSGAEVKKPGASVKVSCKASGYTFTSYYMHWVRQAPGQGLEWMGIINPSGGSTSYAQKFQGRVTMTRDTSTSTVYMELSSLRSEDTAVYYCARDLSGGLDYWGQGTLVTVSS VL: ETTLTQSPATLSVSPGERVTLACRAGQTISSKLAWYRQKPGQAPSLLIYDASTRATGVPARFSGSGSGTEFTLTISSLQSEDFAVYYCQQYSDWPPTFGQGTKVEIK | 1.5 nM | 3 nM
15 | STE72-4E12 IgG (antibody, V domains shown, source: Expi293F, transfected, purified (Protein A); copies: 2 + 2) VH: QVQLVQSGAEVKKPGASVKVSCKASGYTFTSYYMHWVRQAPGQGLEWMGIINPSGGSTSYAQKFQGRVTMTRDTSTSTVYMELSSLRSEDTAVYYCARDLSGGLDYWGQGTLVTVSS VL: ETTLTQSPATLSVSPGERVTLACRAGQTISSKLAWYRQKPGQAPSLLIYDASTRATGVPARFSGSGSGTEFTLTISSLQSEDFAVYYCQQYSDWPPTFGQGTKVEIK | 1.6 nM | –
16 | STE73-2G8 scFv-Fc (scFv, V domains shown, also called scFv-hFc; source: Expi293F, transient transfection, purified (Protein A)) VH: QVQLVQSGGGLVKPGGSLRLSCAASGITVSSNYMSWVRQAPGKGLEWVSILYSGGTTFYTDSVKGRFTISRDNSKNTLHLQMNSLRAEDTAVYYCARWSGTYYDYWGQGTLVTVSS VL: SSELTQDPAVSVALGQTVRITCQGDSLRSYYASWYQQKPGQAPVLVIYGKNNRPSGIPDRFSGSSSGNTASLTITGAQAEDEADYYCNSRDSTNDPVLFGAGTKLTVL | 0.2 nM | 2.8 nM
17 | STE73-2G8 IgG (antibody, V domains shown, source: Expi293F, transfected, purified (Protein A); copies: 2 + 2) VH: QVQLVQSGGGLVKPGGSLRLSCAASGITVSSNYMSWVRQAPGKGLEWVSILYSGGTTFYTDSVKGRFTISRDNSKNTLHLQMNSLRAEDTAVYYCARWSGTYYDYWGQGTLVTVSS VL: SSELTQDPAVSVALGQTVRITCQGDSLRSYYASWYQQKPGQAPVLVIYGKNNRPSGIPDRFSGSSSGNTASLTITGAQAEDEADYYCNSRDSTNDPVLFGAGTKLTVL | 0.8 nM | –
18 | STE72-4C10 scFv-Fc (scFv, V domains shown, also called scFv-hFc; source: Expi293F, transient transfection, purified (Protein A)) VH: EVQLQESGGGVVQPGRSLRLSCAASGFTFSSYAMHWVRQAPGKGLEWVAVISYDGSNKYYADSVKGRFTISRDNSKNTLYLQMNSLRAEDTAVYYCAREYSSSWYGLGAFDIWGQGTMVTVSS VL: DIRLTQSPSSLSASVGDRVTITCRASQNIHYYLNWYQQKPGKAPSLLVYGASSLQSGVPSRFSGSGSGTEYTLTISSLQPEDFATYFCQQSFKSPATFGQGTKVDIK | 0.5 nM | 3.5 nM
19 | STE73-2C2 scFv-Fc (scFv, V domains shown, also called scFv-hFc; source: Expi293F, transient transfection, purified (Protein A)) VH: QVQLVESGGGLVQPGGSLRLSCAASGITVSSNYMSWVRQAPGKGLEWVSVIYSGGSTFYADSVKGRFTISRDNSKNTLYLQMNSLRAEDTGVYYCARGHDNLDYWGQGTLVTVSS VL: LPVLTQPHSVSESPGKTVIISCTGSSDSIASNYVQWYQQRPGSAPTTVIYEDNKRPSGVPDRFSGSTDSSSNSASLTISGLKTEDEAEYYCQSYDSNNHWVFGGGTKLTVL | 3.1 nM | 3 nM
20 | STE73-2E9 scFv-Fc (scFv, V domains shown, also called scFv-hFc; source: Expi293F, transient transfection, purified (Protein A)) VH: QVQLVQSGAEVKKPGASVKVSCKASGYTFTSYGISWVRQAPGQGLEWMGWISAYNGNTNYAQKLQGRVTMTTDTSTSTAYMELRSLRSDDTAVYYCARGKFDYWGQGTLVTVSS VL: QSVLTQPPSVSEAPSQRVTISCSGSSSNIGNNAVNWYQQLPGKAPKLLIYYDDVLPSGVSDRFSGSKSGTSASLAISGLQSGDEADYYCAAWDDSLSGVVFGGGTKLTVL | – | 3.4 nM
21 | STE72-8E1 scFv-Fc (scFv, V domains shown, also called scFv-hFc; source: Expi293F, transient transfection, purified (Protein A)) VH: QVQLQEWGPGLVQPSETLSLTCTVSGGSISSGGYYWSWIRQHPGKGLEWIGRIYPSGSTNYNPSLKSRVTMSVDTSENQFSLKLSSVTAADTAVYYCARGGPKRSGSPFDVWGQGTMVTVSS VL: EVVMTQSPSTLSASVGDRVTITCRASQTFGPWLAWYQQKPGQAPKLLIYMASELESGVPSRFSGSGSGTEFTLSISSLQPDDFATYYCQQYNTFSPWTFGQGTKVDIK | 0.4 nM | 5.6 nM

Reference: publication PMC7952403 (Nature Communications, 2021)
